Consider 2 substances from paper PMC11399441.

Series [1] in a line: IP and anti-ubiquitin western blot. The note with it: glycan lost; control: untreated YTS-1 cells. (Immunoblotting shows a protein as a band on a membrane.)
Series [2] can be described thus: western blot, YTS-1 cells. The conditions noted are these: control: untreated YTS-1 cells.
Another series in a line: CHX chase, western blot. The note with it: control: untreated YTS-1 cells.

As for “C1GalT1 (core1 β-1,3-galactosyltransferase, T-synthase): OSMI-1”, in series [1], the “other: ubiquitination” value is “increases”. For the same substance, in series [2] (glycan lost), the expression_or_secretion result was “decreases”. The degradation_or_half_life result in “CHX chase, western blot” (glycan lost) is recorded as “decreases”.

As to “C1GalT1 (core1 β-1,3-galactosyltransferase, T-synthase): PugNAc”, the expression_or_secretion entry in series [2] (glycan gained) is “increases”. The degradation_or_half_life entry in the series “CHX chase, western blot” (glycan gained) was “increases”.
